Patent US20250051435A1 (INVETX, published 2025)

T1: feline IL-5 (Kingfisher Biotech; RP1152F) (feline, UniProt O77515 20-134)
T1 construct: Bought recombinant protein; also called fIL-5; fIL5
T1 sequence (looked up): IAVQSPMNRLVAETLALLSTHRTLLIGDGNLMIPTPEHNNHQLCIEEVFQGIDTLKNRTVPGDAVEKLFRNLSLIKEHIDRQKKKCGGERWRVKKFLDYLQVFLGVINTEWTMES


Tests used:
[1] = biological target: T1, feline IL-5 (Kingfisher Biotech; …); assay: SPR Biacore T200, IgG captured on goat anti-feline IgG CM5 chip, feline IL-5 as analyte
From the text: (§1) MABS, 11:239-264). These post-translational modifications can be particularly problematic when they reside in the CDRs. […] DNA constructs were synthesized (GeneArt) encoding the MtxB clone with substitutions to eliminate the potential sequence liabilities. For the NG site in LCDR3, the Asn (position 106) was substituted with either a Gln or a Ser and for the Met in HCDR3 (position 115), a Len was substituted. The DNA constructs with the light chain variants were fused to the feline kappa constant domain. These DNA constructs were subcloned into the pcDNA3.4 expression vector (ThermoFisher) and expressed with the ExpiCHO system (ThermoFisher). The antibodies were purified with mAbSelect SuRe chromatography (Cytiva) and buffer exchanged into 20 mM sodium acetate, 136 mM sodium chloride, pH 5.5. The variants were tested in an SPR experiment using a Biacore T200 instrument to measure their affinity to feline IL-5 (Kingfisher Biotech; RP1152F). Goat anti-feline IgG was immobilized onto a Series S CM5 sensor chip (Cytiva) and the original MtxB clone and the variants containing the amino acid substitutions were captured on the chip at 5 μg/ml.
DNA constructs (GeneArt) were generated for the two heavy chain variants with the feline IgG1a constant domain along with the three light chain variants with the feline kappa constant domain were all subcloned into pcDNA 3.4 (ThermnoFisher Scientific). Each combination of the heavy and light chain variants was transfected into ExpiCHO cells to generate conditioned medium. The feline IgGs were purified using MabSelect SuRe chromatography and buffer exchanged into 20 mM sodium acetate, 136 mM sodium chloride, pH 5.5. The binding affinities of the different feline IgGs to feline IL-5 was determined using the same SPR method described in the removing potential sequence liabilities in LCDR3 and HCDR3 section and are shown below in Table 7.

[2] = biological target: T1, feline IL-5 (Kingfisher Biotech; …); assay: SPR Biacore T200, IgG captured on goat anti-feline IgG-Fc CM5 chip, feline IL-5 as analyte
Procedure: (§2) MtxA antibody and MtxB antibody had the highest affinity to feline IL-5 as determined by surface plasmon resonance (SPR) using a Biacore T200 instrument. Goat anti-feline IgG-Fc fragment specific (Jackson ImmunoResearch; 102-005-008) at 30 μg/ml in 10 mM acetate, pH 5.0 was immobilized onto CM5 sensor chip (Cytiva; 29104988) with NHS coupling at 10 μL/min for 420 seconds and then other sites blocked with ethanolamine at 10 μL/min for 420 seconds. The anti-feline IL-5 antibodies were captured at 2 μg/ml onto the anti-feline IgG CM5 chip for 60 sec at 10 μl/min. […] The kinetics of the feline IL-5 binding to the antibodies is shown below in FIG. 2. In addition, an IL-5 receptor blocking assay was completed by capturing biotinylated receptors on a Series S CAP chip and Biotin CAPture reagent (Cytiva). For this assay, a fusion protein was generated containing the extracellular domain of feline IL-5Rα (XP_011278466.1) linked to a 2X-Gly-Gly-Gly-Ser (SEQ ID NO:89) linker-linked to the human IgG1 Fc linked to the AviTag sequence (FIG. 1B, SEQ ID NO:2) and subcloned into the pcDNA3.4 mammalian expression vector. This construct was expressed in CHO-S cells and purified with protein A chromatography followed by a polishing chromatography step with SEC. The purified recombinant protein was biotinylated in vitro using the BirA biotin ligase. Antibodies were titrated in running buffer (1×PBSP+, Cytiva) and pre-incubated with 50 nM IL-5 (Kingfisher) at multiple molar ratios. Binding was assessed by injecting these samples over the captured receptor for 180 s. The Rmax was used to calculate the inhibition percent by dividing the Rmax of the pre-mixed samples by an average of the IL-5-only Rmax samples that were collected throughout the assay. The ability of each antibody to block binding of feline IL5 was measured (Table 2).

[3] = biological target: T1, feline IL-5 (Kingfisher Biotech; …); assay: Biacore, antibody pre-incubated with 50 nM IL-5 at 1:1, over captured biotinylated IL-5Rα-Fc-AviTag (competitor m3)
Procedure: as §2

[4] = biological target: T1, feline IL-5 (Kingfisher Biotech; …); assay: high-throughput SPR (Carterra LSA), antibody coupled to HC-30M chip, feline IL-5 as analyte
Procedure: The chip surface was first activated by flowing a freshly prepared 1:1:1 activation mix of 100 mM MES pH 5.5, 100 mM S-NHS, and 400 mM EDC for seven minutes. Antibodies diluted to 10 μg/mL in 10 mM sodium acetate, pH 4.25 buffer, 0.01% Tween were coupled to the chip surface for 10 min using the instrument 96 Multi Flow Channel printhead. The chip surface was quenched by flowing 1 M Ethanolamine for seven minutes, followed by two wash steps of 15 seconds each in 25 mM MES pH 5.5 buffer. Feline IL-5 (Kingfisher Biotech; RP1152F) was used at the following concentrations: 1000, 333.3, 111.1, 37.0, 12.3, 4.1, 1.4, 0.45, and 0.15 nM.

[5] = biological target: T1, feline IL-5 (Kingfisher Biotech; …); assay: SPR Biacore T200, IgG captured on goat anti-feline IgG CM5 chip, feline IL-5 as analyte; remark: listed apart in the source
From the text: as §1, with “Asparagine deamidation for asparagine residues and oxidation at methionine residues can negatively impact the potency and the stability of an antibody (Xu et al., 2019. MABS,” for “MABS,”

[6] = biological target: T1, feline IL-5 (Kingfisher Biotech; …); assay: ELISA, Fab culture supernatant on plate-coated feline IL-5, anti-feline Fab'2-HRP detection
From the text: Fragments containing the pre-selected CDR pools from these libraries were randomly paired by overlap PCR to create a new library incorporating mutations throughout all targeted CDRs. The phage propagated following round 4 of selection were used for PCR amplication of LCDR2, LCDR3 and HCDR3. The PCR-amplified fragment containing the light chain and the heavy chain were ligated into a phagemid vector and transformed into E. coli. The number of transformants was approximately 2E+10. Library plasmid DNA was purified using a midi-prep purification method. Ten pg of the library plasmid DNA was transformed into E. coli for growth and propagation of the Fab phage. After overnight phage production, phage was precipitated from the culture supernatant and resuspended in blocking buffer (1% BSA/PBS). The phage were treated at 58° C. for 10 minutes to remove unstable clones prior to the selections. The input phage was incubated for 30 minutes in a blocked ELISA plate coated with feline IL-5. The ELISA plate was washed with PBS, pH 7.4 followed by acid elution of the bound phage. The output phage was then used to infect E. coli for propagation for the next round of selection. For rounds 1, 2, 3 and 4, the ELISA plates were coated with 10 μg/ml, 8 μg/ml, 5 μg/ml and 1 μg/ml, respectively. The number of washes after each round were 3, 5, 10 and 10 for rounds 1, 2, 3 and 4, respectively. Ninety-three clones from the round 4 output were grown overnight for Fab production and tested for binding to feline IL-5 in an ELISA format. For this assay, supernatants from the overnight cultures were incubated in Immulon 4 HBX high-binding plate that was coated with 10 μg/ml feline IL-5 (Kingfisher Biotech; Cat #RP1152F) and blocked with 1% bovine serum albumin in phosphate buffered saline (PBS), pH 7.4. The controls added included the MtxB clone and clone 1H3-C6 which was the top affinity clone from the first stage A1 step. The Fab binding to the feline IL-5 was detected with anti-feline Fab′₂-HRP conjugate.
The results are shown in Table 8A which compares relative Fab binding affinity to feline IL-5 by Fabs disclosed herein. IL-5 binding was detected with anti-feline Fab′₂-HRP conjugate. Differences in CDR amino acids compared to the MtxB are underlined. The data in the last column are absorbance following addition of substrate to detect the HRP conjugate.

[7] = biological target: T1, feline IL-5 (Kingfisher Biotech; …); assay: ELISA on plate-coated feline IL-5, Fab at 65 ng/ml dimerized with goat anti-feline IgG F(ab')2, anti-goat-HRP detection

| Binder | Kd [1] [nM] | koff [1] [s⁻¹] | kon [1] [M⁻¹ s⁻¹] | Kd [2] [nM] | koff [2] [s⁻¹] | kon [2] [M⁻¹ s⁻¹] | % blocking 1:1 [3] [%] | fIL5 Fab (ELISA absorbance) [6] [absorbance] | Normalized fIL-5 ELISA value, 65 ng/ml Fab [7] | further results |
| --- | --- | --- | --- | --- | --- | --- | --- | --- | --- | --- |
| Chimeric 154 (clone 154 variable domains with feline IgG1a and feline kappa constant domains) (antibody, V domains shown, also called 154 chimera) VH: EVQLVESGGDLVKPGGSLKLSCAASGFTFSNYAMSWVRQTPDKRLEWVATIGSGGHYTYHPDSVKGRFSISRDNAKNTLSLQMSSLKSEDTAMYYCTRETDGYDGMDYWGQGTSVTVSS VL: DIVMTQSPATLSVTPGDRVSLSCRASQSISDYLYWYQQKSHESPRLLIKYASQSISGIPARFSGSGSGSDFTLSINSVEPEDVGVYYCQNGHSFPYTFGGGTKLEIK | 0.0914 | 3.38e-05 | 369000 | 0.129 | 3.56e-05 | 276000 | 98.2 | – | – | – |
| murine anti-feline IL-5 antibody clone 154 (antibody, V domains shown, also called murine antibody 154) VH: EVQLVESGGDLVKPGGSLKLSCAASGFTFSNYAMSWVRQTPDKRLEWVATIGSGGHYTYHPDSVKGRFSISRDNAKNTLSLQMSSLKSEDTAMYYCTRETDGYDGMDYWGQGTSVTVSS VL: DIVMTQSPATLSVTPGDRVSLSCRASQSISDYLYWYQQKSHESPRLLIKYASQSISGIPARFSGSGSGSDFTLSINSVEPEDVGVYYCQNGHSFPYTFGGGTKLEIK | – | – | – | – | – | – | – | – | – | Kd [4]: 0.141 nM |
| MtxA antibody (felinized clone 154) (antibody, IgG1a, V domains shown, Feline IgG1a (GenBank BAA32229.1) / feline kappa (GenBank ATI97438.1); also called Matrix clone A) VH: DVQLVESGGDLVKPGGSLRLTCVGSGFTFSNYAMSWVRQAPGEGLQWVATIGSGGHYTYHPDSVKGRFTISRDNAKNTLYLQMNSLQTEDTASYYCTRETDGYDGMDYWGQGTLVTVSS VL: EIQMTQSPSSLSASVGDRVTITCRASQSISDYLYWYQQKPGKAPKLLIYYASQSISGVPSRFSGSGSGTDFTLTISSLQPEDFATYYCQNGHSFPYTFGPGTKLEIK | 0.273 | 6.65e-05 | 242000 | 0.178 | 1.49e-05 | 87100 | 92.5 | – | – | – |
| MtxB antibody (felinized clone 154) (antibody, IgG1a, V domains shown, Feline IgG1a (GenBank BAA32229.1) / feline kappa (GenBank ATI97438.1); also called MatrixB; Matrix B) VH: DVQLVESGGDLVKPGGSLRLTCVGSGFTFSNYAMSWVRQAPGEGLQWVATIGSGGHYTYHPDSVKGRFTISRDNAKNTLYLQMNSLQTEDTASYYCTRETDGYDGMDYWGQGTLVTVSS VL: DIVMTQTPLSLSVTPGEPASISCRASQSISDYLYWYLQKPGQSPRRLIYYASQSISGVPDRFSGSGSGTDFTLRISRVEADDVGVYYCQNGHSFPYTFGPGTKLEIK | – | – | – | 5.02 | 0.000548 | 141000 | 74.2 | – | – | Kd [5]: 5.9 nM; koff [5]: 0.00053 s⁻¹; kon [5]: 90000 M⁻¹ s⁻¹ |
| MtxB Fab (Fab, V domains shown, Fab made in E. coli from the phagemid: heavy chain variable domain, CH1 and partial hinge; light chain of MtxB; also called Matrix B; original MtxB Fab) VH: DVQLVESGGDLVKPGGSLRLTCVGSGFTFSNYAMSWVRQAPGEGLQWVATIGSGGHYTYHPDSVKGRFTISRDNAKNTLYLQMNSLQTEDTASYYCTRETDGYDGMDYWGQGTLVTVSS VL: DIVMTQTPLSLSVTPGEPASISCRASQSISDYLYWYLQKPGQSPRRLIYYASQSISGVPDRFSGSGSGTDFTLRISRVEADDVGVYYCQNGHSFPYTFGPGTKLEIK | – | – | – | – | – | – | – | 0.054 | 0.165 | – |
| 1H3-C6 Fab (MtxB HCDR3 variant) (Fab, V domains shown, Fab from the MtxB HCDR3 library; the entry named is the parent, the changed CDR is told under detail) VH: DVQLVESGGDLVKPGGSLRLTCVGSGFTFSNYAMSWVRQAPGEGLQWVATIGSGGHYTYHPDSVKGRFTISRDNAKNTLYLQMNSLQTEDTASYYCTRETDGYGPMDVWGQGTLVTVSS VL: DIVMTQTPLSLSVTPGEPASISCRASQSISDYLYWYLQKPGQSPRRLIYYASQSISGVPDRFSGSGSGTDFTLRISRVEADDVGVYYCQNGHSFPYTFGPGTKLEIK | – | – | – | – | – | – | – | 0.1 | 0.967 | – |
